# According to patent US20240132857:
# Substitutions are numbered along the chain they refer to. Names and notes keep the numbering of the source.
# B1: Ube2N^D119A (protein)
# chain: GMAGLPRRIIKETQRLLAEPVPGIKAEPDESNARYFHVVIAGPQDSPFEGGTFKLELFLPEEYPMAAPKVRFMTKIYHPNVDKLGRICLDILKDKWSPALQIRTVLLSIQALLSAPNPDAPLANDVAEQWKTNEAQAIETARAWTRLYAMNNI
# B2: Ube2N^D119N (protein)
# chain: B1 chain with A120N
# B3: Ube2N^N123A (protein)
# chain: B1 chain with A120D, N124A
# B4: Ube2N^D124A (protein)
# chain: B1 chain with A120D, D125A
# Biological target: Ub^1-74, P0CG48
# Sequence (P0CG48 whole entry, looked up, tested part not stated): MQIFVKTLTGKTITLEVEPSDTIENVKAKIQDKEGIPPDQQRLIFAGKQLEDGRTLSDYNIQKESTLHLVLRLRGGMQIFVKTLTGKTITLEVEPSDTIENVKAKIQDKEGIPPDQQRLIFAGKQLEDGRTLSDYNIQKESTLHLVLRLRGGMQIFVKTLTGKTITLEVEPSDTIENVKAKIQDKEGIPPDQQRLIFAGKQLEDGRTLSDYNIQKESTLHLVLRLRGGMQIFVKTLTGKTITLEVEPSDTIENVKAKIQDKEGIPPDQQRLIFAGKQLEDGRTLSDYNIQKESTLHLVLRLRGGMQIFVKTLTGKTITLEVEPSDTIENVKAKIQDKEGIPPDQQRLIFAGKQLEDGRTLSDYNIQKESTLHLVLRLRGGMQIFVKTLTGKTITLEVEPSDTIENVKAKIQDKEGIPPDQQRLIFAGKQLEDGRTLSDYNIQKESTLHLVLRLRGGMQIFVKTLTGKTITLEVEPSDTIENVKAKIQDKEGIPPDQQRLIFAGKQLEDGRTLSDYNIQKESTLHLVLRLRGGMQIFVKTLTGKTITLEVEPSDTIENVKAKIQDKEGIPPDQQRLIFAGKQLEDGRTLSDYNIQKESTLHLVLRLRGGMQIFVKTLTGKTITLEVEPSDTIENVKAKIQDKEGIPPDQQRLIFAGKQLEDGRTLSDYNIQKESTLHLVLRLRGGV
Protein,"KM of di-ubiquitin formation, fold increase against wild-type Ube2N","kcat of di-ubiquitin formation, fold reduction against wild-type Ube2N"
B1,"modestly increased the KM by ˜4 and ˜7-fold, respectively",Mutation to alanine reduced kcat 100-fold
B2,"modestly increased the KM by ˜4 and ˜7-fold, respectively",mutation to asparagine 30-fold
B3,,The ˜3-fold reduction in kcat
B4,,The ˜3-fold reduction in kcat
